“And” between values parts separate entries of the source, which are not always exact repeats. Identical values can stand only once. “Also recorded” adds a separate entry of the source.
Experiments:
Colo205 cells [1] = assay: DEVDase (caspase) activity in Colo205; assay type: cell-based, human; details: Colo205, 5 mM aspirin 24 h
Experimental: (A) Aspirin induces expression of DR5, DcR1 and DcR2 on the cell surface. Colo205 cells were treated with 5 mM aspirin for 24 h and cell surface expression of DR4, DR5, DcR1 and DcR2 was measured by immunostaining and detected with flow cytometry. The histograms shown include isotype control (black, open peak), untreated Colo205 (grey, closed peak) and aspirin-treated Colo205 (grey, open peak) samples. The histograms are representatives of three independent experiments. […] DEVDase activity was expressed as average nmol AMC released per minute by 1 mg total cellular protein±SD of 3 independent experiments.
In order to determine the cell surface expression of each of the TRAIL receptors on A2780 carcinoma cells, cells were washed twice in PBS containing 1% BSA and then incubated with monoclonal antibodies to DR4, DR5, DcR1 or DcR2 (Alexis) for 40 min. After two wash steps with PBS/BSA, anti-mouse IgG-FITC (Sigma) secondary antibody was added for 30 min. All incubations were carried out on ice. Negative controls contained isotype control antibody. Cells were analyzed by a FacsCalibur flow cytometer. […] Substrate cleavage leading to the release of free AMC was monitored at 37° C. at 60 sec intervals for 25 cycles using a Wallac multilabel counter (excitation 355 nm, emission 460 nm). […]

Colo205 cells [2] = assay: Colo205 apoptosis after neutralizing antibodies to DcR1 and DcR2; assay type: cell-based, human; details: for dose that induced approximately 50% cell death: Annexin V
Experimental: All graphs are representatives of two independent repeats. […] Induction of apoptosis was measured 3 h post-treatment using Annexin V assay. […] The graphs show the average±SEM of three independent experiments.
Apoptotic cell death was measured 3 h post-treatment using staining Annexin V assay (FIG. 15), as described above. Increase in apoptosis was expressed as fold increase compared to the level of apoptosis caused by the ligands alone, in the absence of the neutralizing antibodies.

Colo205 cells [3] = assay: Kinetics of receptor activation and apoptosis induction, ligand wash-out in Colo205; assay type: cell-based, human; details: Colo205, 30 ng/ml; for incubation time to reach 50% of total efficacy: ligand washed out, Annexin V at 240 min
Experimental: Cell death induction was expressed relative to the percentage of death induced after 240 min without washing out the ligands.
The cells were harvested and cell death was quantified with Annexin V labelling (FIG. 16B), as described above. The data was fitted with an interpolating spline using the software MatlabR.
The cells were then incubated to a total of 180 min in normal growth medium and then the level of cell death was determined (FIG. 16C).

A2780 cells = assay: Caspase-3 activity and acridine orange apoptosis assays in A2780; assay type: cell-based, human; details: for effect of DcR2 blocking antibody on apoptosis induction: A2780; for effect of DR5 siRNA on induced apoptosis: A2780, also with cisplatin
ML-1 cells = assay: Cytotoxicity in ML-1 cells; assay type: cell-based
Experimental: Colo205 and ML-1 cells were then treated with increasing concentrations of TRAIL or the DR5-specific variants D269H, D269HE195R, and D269H/T214R, and their cytotoxic potential was measured with a 3-(4,5-dimethylthiazol-2-yl)-2,5-diphenyl tetrazolium bromide (MTT) assay.

Colo205 tumors = Colo205 tumors in athymic nude mice; assay type: in vivo; details: for anti-tumor effect, single therapy: 1 and 5 mg/kg IP
Experimental: The anti-tumor effect of rhTRAIL WT and D269HE195R was tested in a small number of athymic nude mice carrying a tumor of Colo205 cells (n=3 to 5 per group). The rhTRAIL proteins were tested in doses of 1 and 5 mg/kg, given by intraperitoneal injections for 2×5 days (day 1-5 and 8-12) with a daily doses of aspirin (in the same syringe as protein).
In a third study the combination between TRAIL and aspirin was tested. […] Both were tested in doses of 1 and 5 mg/kg, given by intraperitoneal injections for 2×5 days (day 1-5 and 8-12) with daily doses of aspirin (in the same syringe as protein). Data is only presented until day 13, because of too many fluctuations and mice dying after this day.

HeLa xenografts = HeLa xenografts in athymic nude mice; assay type: in vivo; details: start at +/−150 mm3
Excerpt: Xenografts of the HeLa cervical cancer cell line were established with matrigel in athymic nude mice. Treatment was started when tumor volume was +/−150 mm3.

SW948 cells = assay: Cell survival / sensitivity of SW948; assay type: cell-based
LoVo cells = assay: Cell survival / sensitivity of LoVo; assay type: cell-based
Excerpt: C) Effect of increasing concentration of 5-Flurouracil on Lovo cells.

SiHa cells = assay: Cell survival / sensitivity of SiHa; assay type: cell-based
Excerpt: (A) Effect of increasing concentration of Bortezomib on cell survival. […] (C) 10Gy Radiotherapy had no effect in further decreasing cell viability of SIHA cells in both TRAIL and DR5 mutant treated cells.

HeLa cells = assay: Cell survival / sensitivity of HeLa; assay type: cell-based
Experimental: (B) Effect of increasing of Bortezomib on cell viability. Hela cells appear to tolerate higher concentration of Bortezomib compared to Caski and SIHA cells (C) Combination therapy with 10 nM Bortezomib incubated for 24 h lead to further decreases in cell viability in cells treated with both TRAIL and two of the DR5 mutants (D) Radiation therapy in combination with TRAIL or the DR5 mutants further decrease cell viability in HELA cells. The DR5 mutant show decrease cell viability at lower concentration of ligand compared to TRAIL.

[4] = system: HCT15, HT29 and RKO cells; assay: Cell survival of HCT15, HT29 and RKO; assay type: cell-based
A2780-Luc xenografts = assay: IP A2780-Luc xenografts, bioluminescence imaging; details: for mean signal reduction as to vehicle treated mice: day 16, IP treatment; for light emission (bioluminescent signal): day 16, mean±SEM; for median survival: surrogate endpoint signal ≧3.1×10^8
Experimental: Visualization of response to TRAIL, TRAIL-DR5, cisplatin and to the combination of either ligand with cisplatin by means of bioluminescence imaging. Nude mice were inoculated IP with 2×10^6 A2780-Luc cells. After 5 days treatment was initiated; cisplatin (4 mg/kg IP) or vehicle at day 5 and 12, TRAIL, TRAIL-DR5 (5 mg/kg IP) or vehicle at day 5-10 and 12-16, or a combination of TRAIL or TRAIL-DR5 with cisplatin.
Female nude mice (Hsd:Athymic Nude-nu) were obtained from Harlan Nederland (Horst, The Netherlands) at 6-8 weeks of age (˜21 g). Inoculation was performed after 10 days of acclimatization.
Imaging was conducted with the IVIS 100 series (Xenogen Corporation Alameda, Calif.), composed of a cooled charge-coupled device camera connected to a light tight black chamber. Before in vivo imaging animals were anesthetized with 4% isoflurane and injected IP with D-luciferin (150 mg/kg, Xenogen) reconstituted in sterile PBS. Mice were placed in prone position on a warmed stage (37° C.) in the imaging chamber, and grayscale reference images were obtained under dim illumination. Pseudocolor images representing bioluminescent intensity were acquired with Livinglmage software (version 2.50, Xenogen) 10 and 15 min after D-luciferin injection in complete darkness. These images were superimposed on the grayscale images for analysis with Igor Pro software (version 4.09, WaveMetrics, Lake Oswego, Oreg.). All bioluminescence imaging (BLI) data are depicted in radiance units (photons/sec/cm^2/sr) enabling absolute comparisons between bioluminescent images and represent final data obtained after subtraction of the background signal.

[5] = lowest dose 1 mg/kg + 200 mg/kg aspirin

Row | Molecule | sensitisation by aspirin (Colo205 cells [1]) | apoptosis rate enhancement with neutralizing antibodies to both DcR1 and DcR2 (Colo205 cells [2]; Colo205) | fold increase in apoptosis with DcR1 neutralising antibody (Colo205 cells [2]; Colo205, 3 h) | dose that induced approximately 50% cell death (Colo205 cells [2]; Colo205, 3 h) [ng/mL] | incubation time to reach 50% of total efficacy (Colo205 cells [3]) | effect of DcR2 blocking antibody on apoptosis induction (A2780 cells) | effect of DR5 siRNA on induced apoptosis (A2780 cells) | cell death induction (ML-1 cells) | effect of combination with aspirin (Colo205 tumors; 5 mg/kg + 200 mg/kg aspirin) | effect of combination with aspirin (Colo205 tumors; [5]) | effect on xenografts (HeLa xenografts) | cell viability, single agent (SW948 cells) | cell viability, single agent (LoVo cells) | effect of 5-FU and Aspirin on induced apoptosis (LoVo cells) | effect of combination with bortezomib (SiHa cells) | sensitivity, single agent (SiHa cells) | cell viability, single agent (HeLa cells) | effect of radiotherapy and Bortezomib on induced apoptosis (HeLa cells) | cell viability with or without 5-Flurouracil [4] | mean signal reduction as to vehicle treated mice (A2780-Luc xenografts) [%] | further results
1 | wtTRAIL: wild-type soluble recombinant human TRAIL, amino acids 114-281 (SEQ ID NO: 3) (protein, listed as Homo sapiens, TRAIL 114-281) MVRRGRVAAHTGTRGRSNTSSNSKNKAGRKNSWSSRSGHSSNHRNGVHKGYYYSTYRKNTKNDKMVYYKYTSYDMKSARNSCWSKDAYGYSYGGKNDRVSVTNHDMDHASGAVG | increased the sensitivity | 1.5±0.1 fold | 1.5 fold | ~20 | 60.81 min and 60.8 ± 4.3 min | did not enhance apoptosis induction | completely protected | able to induce cell death | additive effect | additive effect | No effect was observed | greater loss in cell viability compared to that of the DR5 mutant at higher concentrations | equal decrease in cell viability | enhanced apoptosis | increased tumor cell death | resistant | comparable | enhanced apoptosis | equal decrease in cell viability | 48.8 | reduction of apoptosis-inducing potential in the presence of the decoy receptors (Colo205 cells [2]; Colo205): approximately 40%; incubation time for significant pro-caspase-8 processing (Colo205 cells [3]; Western blot): 60 min; effect of 5-FU on sensitivity (SW948 cells): enhanced sensitivity; sensitivity, single agent comparison (SW948 cells): higher sensitivity; light emission (bioluminescent signal) (A2780-Luc xenografts): 2.3×10^8±3.1×10^7 radiance units; median survival (A2780-Luc xenografts): 21 days
2 | D269HE195R: rhTRAIL (114-281) carrying mutations D269H and E195R; DR5-selective TRAIL variant (protein) MVRERGPQRVAAHITGTRGRSNTLSSPNSKNEKALGRKINSWESSRSGHSFLSNLHLRNGELVIHEKGFYYIYSQTYFRFQERIKENTKNDKQMVQYIYKYTSYPDPILLMKSARNSCWSKDAEYGLYSIYQGGIFELKENDRIFVSVTNEHLIDMHHEASFFGAFLVG | much more pronounced | not affected | no increase in apoptosis | ~4 | 3.55 min and 3.6 ± 0.4 min | did not enhance apoptosis induction | completely protected | only TRAIL was able to induce cell death; also recorded: hardly any apoptosis | not visible | additive effect | No effect was observed | decreased cell viability | equal decrease in cell viability | enhanced apoptosis | increased tumor cell death | resistant | comparable | enhanced apoptosis | equal decrease in cell viability | 68.3 | fold increase in apoptosis with DcR2 neutralising antibody (Colo205 cells [2]; Colo205, 3 h): no increase of apoptosis; also recorded: no increase in apoptosis; fold increase in apoptosis with neutralizing antibodies to both DcR1 and DcR2 (Colo205 cells [2]; Colo205, 3 h): not and not affected; effect of 5 or 10 min pre-incubation with wtTRAIL on induced apoptosis (Colo205 cells [3]): failed to reduce; anti-tumor effect, single therapy (Colo205 tumors; listed as TRAIL-DR5): nice response; anti-tumor effect, single therapy (Colo205 tumors; listed as mutant TRAIL): reduces the tumor growth; also recorded: some positive effect on the tumor growth; effect of Aspirin (SW948 cells): enhanced the effect; sensitivity, single agent comparison (LoVo cells): higher sensitivity; light emission (bioluminescent signal) (A2780-Luc xenografts): 1.4×10^8±1.3×10^7 radiance units; median survival (A2780-Luc xenografts): 21 days
